Literature values as cited in US20240409647A1, “BISPECIFIC BINDING PROTEINS AGAINST ALARMINS AND USES THEREOF” (SINOMAB BIOSCIENCE LIMITED, priority 2022, published 2024).

Settings: patients who discontinued ICS and LABA, 12 weeks; placebo 41%

B1: itepekimab: anti-IL-33 antibody (antibody, chains of the INN, looked up, V domains shown)
VH: EVQLVESGGNLEQPGGSLRLSCTASGFTFSRSAMNWVRRAPGKGLEWVSGISGSGGRTYYADSVKGRFTISRDNSKNTLYLQMNSLSAEDTAAYYCAKDSYTTSWYGGMDVWGHGTTVTVSS
VL: DIQMTQSPSSVSASVGDRVTITCRASQGIFSWLAWYQQKPGKAPKLLIYAASSLQSGVPSRFSGSGSGTDFTLTISSLQPEDFAIYYCQQANSVPITFGQGTRLEIK
- rate of loss of asthma control: 22%
